One experiment deals with T1, mAng3 (mouse, UniProt Q9WVH6 22-509, limits assumed).
T1 construct: Bought protein; also called angiopoietin 3
T1 sequence (looked up): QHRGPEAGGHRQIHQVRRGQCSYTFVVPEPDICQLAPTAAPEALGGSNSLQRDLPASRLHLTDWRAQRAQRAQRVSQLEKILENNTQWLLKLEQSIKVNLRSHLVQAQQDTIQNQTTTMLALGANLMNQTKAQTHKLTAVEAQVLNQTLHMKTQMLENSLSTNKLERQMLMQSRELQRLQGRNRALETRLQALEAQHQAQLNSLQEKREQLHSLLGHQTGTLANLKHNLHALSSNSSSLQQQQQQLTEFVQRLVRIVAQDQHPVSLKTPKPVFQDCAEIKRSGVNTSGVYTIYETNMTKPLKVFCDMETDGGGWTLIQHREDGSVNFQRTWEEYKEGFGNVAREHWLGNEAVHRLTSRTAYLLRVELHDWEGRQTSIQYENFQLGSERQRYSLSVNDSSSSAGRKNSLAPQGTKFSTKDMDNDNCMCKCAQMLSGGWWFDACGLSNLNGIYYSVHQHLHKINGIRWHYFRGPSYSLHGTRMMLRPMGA
In words: Octet Red biosensor, hTie2.mFc captured on anti-mFc tips, 100 nM angiopoietin for 5 min; some tips first saturated with 300 nM H4H2055N or Control I. How it is done:
(§1) A further set of experiments was conducted to evaluate the ability of H4H2055N to block Tie2 binding to Ang2 and other members of the angiopoietin family (Ang1, Ang3 and Ang4). In this set of experiments, an Octet Red biosensor was employed using two experimental formats. In the first format, hTie2.mFc (SEQ ID NO:4; 10 μg/ml) or a negative control was captured on anti-mFc Octet sensor tips for 5 min. The captured sensor tip surfaces were then saturated with H4H2055N or Control I antibody by dipping into wells containing 300 nM of respective monoclonal antibodies for 10 min. Finally the sensor tips were placed into wells containing 100 nM of hAng1 (R&D Systems, Inc., Minneapolis, Minn., Cat 923-AN/CF; Accession #Q5HYA0), hAng2 (R&D Systems, Inc., Minneapolis, Minn., Cat 623-AN/CF; Accession #015123), mAng3 (R&D Systems, Inc., Minneapolis, Minn., Cat 738-AN/CF; Accession #Q9WVH6) or hAng4 (R&D Systems, Inc., Minneapolis, Minn., Cat 964-AN/CF; Accession Q9Y264) for 5 min. Binding response at each step of the experiment was monitored and the binding of different angiopoietins to the monoclonal antibody saturated receptor surfaces was plotted (FIG. 2). As illustrated by FIG. 2, H4H2055N blocked the binding of all four angiopoietins to the hTie2.mFc surface.
Background: In BLI a coated tip is dipped into the sample, and binding shifts an interference pattern.

For another experiment, the target named is T2, hAng4 (human, UniProt Q9Y264 25-503, limits assumed).
T2 construct: Bought protein; also called angiopoietin 4
T2 sequence (looked up): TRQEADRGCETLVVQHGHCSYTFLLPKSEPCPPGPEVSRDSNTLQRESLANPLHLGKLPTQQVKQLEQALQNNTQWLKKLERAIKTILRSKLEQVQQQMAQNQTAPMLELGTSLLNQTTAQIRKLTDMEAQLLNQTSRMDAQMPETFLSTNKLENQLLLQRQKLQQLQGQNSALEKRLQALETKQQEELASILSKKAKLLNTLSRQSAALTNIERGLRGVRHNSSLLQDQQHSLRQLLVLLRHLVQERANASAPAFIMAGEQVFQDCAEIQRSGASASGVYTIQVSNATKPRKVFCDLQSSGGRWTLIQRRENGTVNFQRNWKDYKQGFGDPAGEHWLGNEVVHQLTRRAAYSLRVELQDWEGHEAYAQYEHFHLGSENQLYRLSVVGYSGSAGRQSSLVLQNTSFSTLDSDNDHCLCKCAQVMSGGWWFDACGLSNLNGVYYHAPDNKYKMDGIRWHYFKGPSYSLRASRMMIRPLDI
The description is as above. The protocol:
as §1

Another experiment addresses T3, hAng2 (human, UniProt O15123 19-496, limits assumed).
T3 construct: Bought protein; also called angiopoietin 2
T3 sequence (looked up): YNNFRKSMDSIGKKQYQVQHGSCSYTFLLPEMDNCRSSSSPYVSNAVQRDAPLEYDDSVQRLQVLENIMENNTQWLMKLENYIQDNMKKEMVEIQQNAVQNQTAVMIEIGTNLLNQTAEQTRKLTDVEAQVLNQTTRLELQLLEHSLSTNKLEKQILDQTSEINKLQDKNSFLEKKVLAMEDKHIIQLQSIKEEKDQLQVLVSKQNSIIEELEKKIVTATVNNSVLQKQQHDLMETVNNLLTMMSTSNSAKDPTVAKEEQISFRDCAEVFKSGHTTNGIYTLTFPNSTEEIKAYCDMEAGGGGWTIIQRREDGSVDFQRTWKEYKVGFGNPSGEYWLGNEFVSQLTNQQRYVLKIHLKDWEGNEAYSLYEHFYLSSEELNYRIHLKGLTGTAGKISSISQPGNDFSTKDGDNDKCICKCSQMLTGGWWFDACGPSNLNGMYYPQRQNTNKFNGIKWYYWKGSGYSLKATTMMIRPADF
The description is as above. How it is done:
as §1

For experiment [1], the target named is hTie2 on 293-Tie2/SRE-Luc cells (human, UniProt Q02763 23-1124). Description: cell-based or functional assay.
A further experiment concerns the target T4, hTie2 (EGF) (human, UniProt Q02763 210-344).
T4 construct: Domain-deletion construct linked to Luminex beads
In words: Luminex bead binding. How it is done:
(§2) For binding, 25 μl of anti-Tie2 antibody (25 μg/ml) was added to 75 μl of the above created Luminex bead mixture (3×10³ beads per construct) in binding buffer (PBS, 0.05% Tween 20, 1 mg/ml BSA, 0.05% sodium azide) into a 96 well filter plate (Millipore). Incubation was at room temperature (RT) for 90 min or overnight at 4° C. with shaking. The beads were washed 3× with washing buffer (PBS+0.05% Tween 20) resuspended in 100 μl binding buffer containing PE (phycoerythrine)-labeled anti human kappa or PE-labeled anti mouse Fab secondary antibody and incubated at RT for 45 min with shaking. Samples were washed 2× more and binding signal (MFI) for each bead was determined using a Luminex L200 or FLEXMAP3D instrument. Bead linked human Tie2 was used as positive control and bead linked human Tie1 was used to measure family cross-reactivity. In general MFI signals greater than 500 units represent significant binding.

The target in another experiment is T5, hTie2 (Ig1-Ig2-EGF) (human, UniProt Q02763 24-344).
T5 construct: Domain-deletion construct; also used for H/D exchange
In words: Luminex bead binding. The protocol: as §2

The target in another experiment is T6, hTie2 (Ig2-EGF) (human, UniProt Q02763 121-344).
T6 construct: Domain-deletion construct linked to Luminex beads
In words: Luminex bead binding. How it is done: as §2

A further experiment has as its target T7, mTie2-hFc (mouse).
T7 construct: also called mouse Tie2
In words: SPR Biacore 25C, mAb captured. The protocol: (§3) (Tables 3-6). Measurements were conducted on a Biacore 2000 or T200 instrument.
(§4) For antibodies with a mouse constant region (designated H1M or H2M), antibodies were immobilized onto an anti-mouse Fc sensor surface and different concentrations of human, mouse or rat Tie2 constructs (hTie2-His, mTie2-hFc and rTie2-hFc) were injected over the antibody captured surface. For antibodies in the human IgG format (designated H1H or H4H), either an anti-human Fc sensor surface (hTie2-His and hTie2-mFc) or anti-human Fab sensor surface (mTie2-hFc and rTie2-hFc) was employed depending on the Tie-2 construct applied to the antibody captured surface. Amino acid sequences of the constructs used in this Example are as follows: hTie2-His (SEQ ID NO:2); hTie2-hFc (SEQ ID NO:3); hTie2-mFc (SEQ ID NO:4); rTie2-hFc (SEQ ID NO:5); and mTie2-hFc (SEQ ID NO:6).
(§5) Kinetic rate constants—association rate (ka) and dissociation rate (kd) were determined by fitting the real time binding sensorgrams to a 1:1 binding model with mass transport limitation using Scrubber 2.0 curve fitting software. The equilibrium dissociation constant (KD) and dissociative half-life (T½) were calculated from the kinetic rate constants as: KD (M)=kd/ka; and T½ (min)=(In2/(60*kd).).
(In general: In SPR one partner is held on a chip, and binding of the other changes the refractive index at the surface.)

For another experiment, the target named is T8, rTie2-hFc (rat).
T8 construct: also called rat Tie2
Description: SPR Biacore 25C, mAb captured. How it is done:
as §3, §4, §5

This is an account of results in US20170174789A1 (Regeneron, published 2017).

For orientation: Kd means the constant that tells how readily two partners part at equilibrium. The low end stands for a tighter complex, the high end for a looser complex. One may read the koff as a measure of how fast the partners let go of each other. Read a high koff as fast dissociation. Broadly, the kon is the second-order rate constant of association. Read a low kon as slower complex formation.

T8 sequence (chain, as listed by the source limits assumed): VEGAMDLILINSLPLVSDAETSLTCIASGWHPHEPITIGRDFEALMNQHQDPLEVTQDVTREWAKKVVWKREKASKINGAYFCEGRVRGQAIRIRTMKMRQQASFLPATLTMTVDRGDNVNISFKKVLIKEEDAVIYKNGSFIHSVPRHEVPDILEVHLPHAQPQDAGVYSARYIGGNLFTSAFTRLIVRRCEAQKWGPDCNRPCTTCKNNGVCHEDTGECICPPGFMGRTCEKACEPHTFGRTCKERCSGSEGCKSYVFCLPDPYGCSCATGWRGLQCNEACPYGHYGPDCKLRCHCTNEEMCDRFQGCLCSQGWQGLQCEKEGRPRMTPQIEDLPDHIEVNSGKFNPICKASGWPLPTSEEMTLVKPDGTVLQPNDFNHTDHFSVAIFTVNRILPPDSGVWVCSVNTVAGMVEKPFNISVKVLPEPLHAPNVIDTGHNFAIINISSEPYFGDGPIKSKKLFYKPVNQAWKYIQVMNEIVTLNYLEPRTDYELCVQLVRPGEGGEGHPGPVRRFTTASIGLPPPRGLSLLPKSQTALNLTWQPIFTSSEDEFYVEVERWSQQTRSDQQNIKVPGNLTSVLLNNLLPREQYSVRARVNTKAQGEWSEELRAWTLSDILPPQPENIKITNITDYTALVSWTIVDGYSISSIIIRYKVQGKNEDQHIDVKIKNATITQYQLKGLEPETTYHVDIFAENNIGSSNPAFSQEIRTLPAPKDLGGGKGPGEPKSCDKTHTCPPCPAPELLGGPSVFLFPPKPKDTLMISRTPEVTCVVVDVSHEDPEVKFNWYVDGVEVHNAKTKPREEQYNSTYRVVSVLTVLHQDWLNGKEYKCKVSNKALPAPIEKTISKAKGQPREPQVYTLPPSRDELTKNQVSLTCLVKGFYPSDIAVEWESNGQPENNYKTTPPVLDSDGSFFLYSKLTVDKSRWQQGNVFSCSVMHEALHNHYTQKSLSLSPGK
T6 sequence (Q02763 other isoform, or with tags, fused parts or gaps limits assumed): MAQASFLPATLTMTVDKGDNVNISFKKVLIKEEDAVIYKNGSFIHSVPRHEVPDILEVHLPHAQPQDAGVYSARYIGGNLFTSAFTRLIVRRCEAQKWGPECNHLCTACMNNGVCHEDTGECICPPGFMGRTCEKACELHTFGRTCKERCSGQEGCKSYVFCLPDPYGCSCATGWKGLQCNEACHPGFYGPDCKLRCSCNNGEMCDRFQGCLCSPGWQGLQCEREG
T4 sequence (Q02763 other isoform, or with tags, fused parts or gaps limits assumed): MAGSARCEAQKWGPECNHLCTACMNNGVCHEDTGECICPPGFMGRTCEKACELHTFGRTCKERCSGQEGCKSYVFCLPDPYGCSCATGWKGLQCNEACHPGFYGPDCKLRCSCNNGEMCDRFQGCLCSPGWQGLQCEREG

B1: hTie2-mFc (Fc fusion)
chain: AMDLILINSLPLVSDAETSLTCIASGWRPHEPITIGRDFEALMNQHQDPLEVTQDVTREWAKKVVWKREKASKINGAYFCEGRVRGEAIRIRTMKMRQQASFLPATLTMTVDKGDNVNISFKKVLIKEEDAVIYKNGSFIHSVPRHEVPDILEVHLPHAQPQDAGVYSARYIGGNLFTSAFTRLIVRRCEAQKWGPECNHLCTACMNNGVCHEDTGECICPPGFMGRTCEKACELHTFGRTCKERCSGQEGCKSYVFCLPDPYGCSCATGWKGLQCNEACHPGFYGPDCKLRCSCNNGEMCDRFQGCLCSPGWQGLQCEREGIPRMTPKIVDLPDHIEVNSGKFNPICKASGWPLPTNEEMTLVKPDGTVLHPKDFNHTDHFSVAIFTIHRILPPDSGVWVCSVNTVAGMVEKPFNISVKVLPKPLNAPNVIDTGHNFAVINISSEPYFGDGPIKSKKLLYKPVNHYEAWQHIQVTNEIVTLNYLEPRTEYELCVQLVRRGEGGEGHPGPVRRFTTASIGLPPPRGLNLLPKSQTTLNLTWQPIFPSSEDDFYVEVERRSVQKSDQQNIKVPGNLTSVLLNNLHPREQYVVRARVNTKAQGEWSEDLTAWTLSDILPPQPENIKISNITHSSAVISWTILDGYSISSITIRYKVQGKNEDQHVDVKIKNATIIQYQLKGLEPETAYQVDIFAENNIGSSNPAFSHELVTLPESQAPADLGGGKGPGEPRGPTIKPCPPCKCPAPNLLGGPSVFIFPPKIKDVLMISLSPIVTCVVVDVSEDDPDVQISWFVNNVEVHTAQTQTHREDYNSTLRVVSALPIQHQDWMSGKEFKCKVNNKDLPAPIERTISKPKGSVRAPQVYVLPPPEEEMTKKQVTLTCMVTDFMPEDIYVEWTNNGKTELNYKNTEPVLDSDGSYFMYSKLRVEKKNWVERNSYSCSVVHEGLHNHHTTKSFSRTPGK
Regarding B1, the binding result in the experiment with mAng3, in the experiment with hAng4 and with hAng2 was “binds” throughout.

B2: H1H2332B (antibody, V domains shown)
VH: QVQLQESGPGLVKPSETLSLTCTVSGASISSYYWTWFRQPPGQGLEWIGYIYYSGSTNYNPSLKSRVTISVDTSMNQFSLKLTSVTAADTAVYYCARQGGYTSSLFDYWGQGTLVTVSS
VL: DIQMTQSPSSLSASVGDRVTITCRASQSISSYLNWYQQKPGKAPKLLIYVVSSLQSGVPSRFSGSGSGTDFTLTISSLQPEDFATYYCQQSYSIPWTFGQGTKVEIK
notes: Tested as H1H2332B (human IgG format, H1H prefix)
For B2, in experiment [1], the “EC50, Tie2 dependent luciferase activity, 293-Tie2/SRE-Luc cells with 1 nM BowAng1” value worked out at 0.0025 µM and the “EC50, Tie2 dependent luciferase activity, 293-Tie2/SRE-Luc cells with 1 nM BowAng2” value is 0.0037 µM. In the experiment with hTie2 (EGF), the binding result is reported as “no binding (tested: MFI >500 = significant binding)”. The binding result with hTie2 (Ig1-Ig2-EGF) is “no binding (tested: MFI >500 = significant binding)”. For the same molecule, in the experiment with hTie2 (Ig2-EGF), the binding result is “no binding (tested: MFI >500 = significant binding)”. Also, in the experiment with mTie2-hFc, the affinity, expressed as Kd, was 0.107 µM; the “T½” value was determined as 2 min; the koff is 0.00576 s⁻¹; the kon came to 53900 M⁻¹ s⁻¹. Further, in the experiment with rTie2-hFc, the Kd is 0.0553 µM, the “T½” value is 2 min, the koff was 0.00618 s⁻¹ and the kon was found to be 112000 M⁻¹ s⁻¹.
